Measured values reported in the Human Domainome abundance scans (Beltran et al. 2025).
± gives the uncertainty stated by the source.

B1: Peripheral plasma membrane protein CASK, residues 488 to 569; numbered along this chain, O14936 (parent)
chain: VRLVQFQKNTDEPMGITLKMNELNHCIVARIMHGGMIHRQGTLHVGDEIREINGISVANQTVEQLQKMLREMRGSITFKIVP

Variants of: B1
Assay: abundance fitness (aPCA) (normalised: wild type 0, dead -1); higher = more abundant; growth selection in yeast, the domain comes from the species named
Conditions: Homo sapiens

Abundance fitness, by site and new letter:
N53: S -0.183 ± 0.043 | Y -0.525 ± 0.17 | L -0.903 ± 0.12 | E -0.327 ± 0.039 | D -0.27 ± 0.05 | Q -0.186 ± 0.061 | V -0.932 ± 0.084 | I -0.8 ± 0.21 | T -0.567 ± 0.073 | K -0.816 ± 0.12 | R -0.529 ± 0.043 | H -0.7 ± 0.13 | P -0.719 ± 0.12 | C -0.208 ± 0.078 | A -0.308 ± 0.041 | M -0.357 ± 0.088 | G -0.188 ± 0.03 | W -0.972 ± 0.17
I52: N -0.199 ± 0.22 | L -0.115 ± 0.19 | R -0.649 ± 0.45 | T -0.141 ± 0.17 | V -0.036 ± 0.12
I55: K -0.001 ± 0.03 | G -0.124 ± 0.021 | D -0.035 ± 0.039 | E 0.026 ± 0.025 | C 0.026 ± 0.033 | P -1.05 ± 0.089 | H -0.04 ± 0.041 | A -0.016 ± 0.024 | N -0.113 ± 0.05 | M 0.008 ± 0.034 | F -0.065 ± 0.047 | L -0.041 ± 0.025
H44: Q -0.006 ± 0.03 | T -0.039 ± 0.029 | W -0.281 ± 0.03 | Y -0.075 ± 0.051 | S -0.007 ± 0.023
E48: K -0.19 ± 0.055 | A -0.105 ± 0.033 | D -0.108 ± 0.049 | R -0.037 ± 0.028 | P -1.09 ± 0.24 | S -0.071 ± 0.04 | Q -0.069 ± 0.051 | L -0.161 ± 0.037 | W -0.059 ± 0.036 | M -0.158 ± 0.049 | H -0.108 ± 0.071 | T -0.123 ± 0.053 | I -0.073 ± 0.073 | C -0.017 ± 0.045 | N -0.326 ± 0.082 | V -0.06 ± 0.033 | F -0.362 ± 0.15
G54: L -0.636 ± 0.066 | R -0.193 ± 0.028 | W -0.549 ± 0.054 | E -0.076 ± 0.04 | Q -0.085 ± 0.077 | M -0.299 ± 0.088 | Y -0.056 ± 0.24 | A -0.191 ± 0.034 | N -0.16 ± 0.12 | S -0.071 ± 0.037 | T -0.17 ± 0.049 | P -0.911 ± 0.13 | H -0.076 ± 0.11 | V -0.797 ± 0.063 | C -0.254 ± 0.051 | F -0.043 ± 0.079
R50: A -0.025 ± 0.033 | T -0.028 ± 0.043 | K 0.028 ± 0.045 | W -0.118 ± 0.036 | F -0.211 ± 0.15 | G -0.315 ± 0.034 | P -0.774 ± 0.13 | N -0.054 ± 0.092 | S -0.079 ± 0.039 | Q -0.018 ± 0.049 | I 0.034 ± 0.089 | Y -0.174 ± 0.09 | C 0.038 ± 0.056 | E -0.068 ± 0.037 | M 0 ± 0.054 | H -0.148 ± 0.11
G46: Q -0.61 ± 0.084 | Y -1.02 ± 0.28 | R -0.669 ± 0.041 | T -0.992 ± 0.2 | C -0.721 ± 0.081 | K -0.706 ± 0.077 | F -0.75 ± 0.17 | M -0.553 ± 0.076 | N -0.128 ± 0.072 | L -0.638 ± 0.05 | I -1.01 ± 0.24 | V -1.04 ± 0.092 | A -0.624 ± 0.045 | P -0.877 ± 0.13 | E -0.293 ± 0.042 | W -0.951 ± 0.092 | D -0.22 ± 0.04 | H -0.471 ± 0.13 | S -0.491 ± 0.041
D47: I -0.694 ± 0.36 | N -0.497 ± 0.1 | R -0.939 ± 0.11 | L -0.878 ± 0.13 | V -0.859 ± 0.11 | T -0.788 ± 0.15 | E -0.323 ± 0.061 | K -1.04 ± 0.24 | A -0.708 ± 0.085 | S -0.711 ± 0.077 | Y -0.832 ± 0.22 | H -1.03 ± 0.27 | C -0.552 ± 0.15
E51: C -0.34 ± 0.25 | G -0.048 ± 0.32 | T -0.301 ± 0.29 | S 0.102 ± 0.096 | V -0.714 ± 0.3 | R -0.264 ± 0.2 | L -0.442 ± 0.39 | A -0.096 ± 0.11 | F -0.441 ± 0.23
V45: A -0.045 ± 0.043 | L -0.061 ± 0.05 | H 0.016 ± 0.18 | S -0.232 ± 0.051 | P -0.059 ± 0.072 | C -0.128 ± 0.079 | M -0.025 ± 0.074 | R -0.169 ± 0.043 | E -0.054 ± 0.046 | Y -0.665 ± 0.35 | N -0.292 ± 0.12 | K -0.207 ± 0.083 | F -0.457 ± 0.14 | I -0.046 ± 0.047 | G -0.548 ± 0.054 | Q -0.134 ± 0.061 | T 0.022 ± 0.075 | W -0.464 ± 0.12 | D -0.178 ± 0.079
I49: T -0.576 ± 0.095 | N -0.804 ± 0.2 | Y -0.998 ± 0.27 | M -0.264 ± 0.097 | A -0.856 ± 0.089 | K -0.823 ± 0.16 | P -0.743 ± 0.15 | W -1.04 ± 0.17 | G -1.05 ± 0.11 | D -0.24 ± 0.2 | V 0.001 ± 0.035 | E -0.992 ± 0.13 | F -0.721 ± 0.17 | C -0.855 ± 0.17 | L -0.089 ± 0.04 | Q -1 ± 0.24 | S -0.886 ± 0.12 | R -0.858 ± 0.073
